{"source": "patent US10202593B2", "about": "“Evolved sortases and uses thereof” (President and Fellows of Harvard College, priority 2013, dated 2019)", "molecules": {"B1": {"name": "4S.6A: 5mut + N98D A104V A118S F122A K134G I182V E189V (protein)", "chain": "QAKPQIPKDKSKVAGYIEIPDADIKEPVYPGPATREQLDRGVSFVEENESLDDQNISISGHTAIDRPNYQFTNLGAAKKGSMVYFKVGNETRKYKMTSIRNVKPTAVEVLDEQKGKDKQLTLVTCDDYNVETGVWETRKIFVATEVK"}}, "key": {"[1]": {"test_system": "LPESG (Abz-LPESGK(Dnp)-CONH2)", "assay": "In vitro sortase kinetics HPLC assay, LPESG substrate", "type": "biochemical", "experimental": "(§1) See below for details on sortase expression and purification, and on the synthesis of Abz-LPETGK(Dnp)-CONH2 (SEQ ID NO: 19). […] Reactions were initiated with the addition of enzyme and incubated at 22.5° C. for 3 to 20 minutes before quenching with 0.5 volumes of 1 M HCl. Five to ten nmol of peptide from the quenched reactions were injected onto an analytical reverse-phase Eclipse XDB-C18 HPLC column (4.6×150 mm, 5 μm, Agilent Technologies) and chromatographed using a gradient of 10 to 65% acetonitrile with 0.1% TFA in 0.1% aqueous TFA over 13 minutes. Retention times under these conditions for the Abz-LPETGK(Dnp)-CONH2 (SEQ ID NO: 19) substrate, the released GKDnp peptide, and the Abz-LPETGGG-COOH (SEQ ID NO: 20) product were 12.8, 10.4, and 9.1 min, respectively. To calculate the percent conversion, the ratio of the integrated areas of the Abz-LPETGGG-COOH (SEQ ID NO: 20) and Abz-LPETGK(Dnp)-CONH2 (SEQ ID NO: 19) peptide Abs220 peaks was compared to a standard curve generated by mixing the product and starting peptide in known ratios. To determine […] and Km, reaction rates were fit to the Michaelis-Menten equation using OriginPro 7.0 software. All kinetics values reported represent the average of at least three measurements. Percent conversion was also calculated by using the ratio of the integrated areas of the GK(Dnp)-CONH2 and Abz-LPETGK(Dnp)-CONH2 peptide Abs355 peaks were compared directly (Example 5). To determine kcat and Km, LPETG, reaction rates were fit to the Michaelis-Menten equation using Microsoft Excel using the Solver add-in. To determine Km,GGG and KH, reaction rates were fit to the modified Michaelis-Menten, for which KH is as defined when KH<<Km,GGG.\n(§2) Assays to determine eSrtA, eSrtA(2A-9) and eSrtA(4S-9) specificity were performed by preparing 10 μM stocks of Abz-LXEXGK(Dnp) (SEQ ID NO: 75) peptides in 300 mM Tris pH 7.5, 150 mM NaCl, 5 mM CaCl2, 5% v/v DMSO, and 100 mM Gly-Gly-Gly-COOH (GGG). Reactions were performed by adding eSrtA(2A-9) to a final concentration of 450 nM, eSrtA(4S-9) to a final concentration of 115 nM or eSrtA to a final concentration of 47.5 nM and a final volume of 100 μL, then incubating at 22.5° C. for 15 minutes. Reactions were quenched by the addition of 0.2 volumes of 5 M HCl, then were injected onto an analytical reverse-phase Eclipse XDB-C18 HPLC column (4.6×150 mm, 5 μm, Agilent Technologies) and chromatographed using a gradient of 10 to 65% acetonitrile with 0.1% TFA in 0.1% aqueous TFA over 13 minutes. Retention times under these conditions for the Abz-LPETGK(Dnp)-CONH2 (SEQ ID NO: 19) substrate, the released GKDnp peptide, and the Abz-LPETGGG-COOH (SEQ ID NO: 20) product were 12.8, 10.4, and 9.1 min, respectively, while the remaining Abz-LXEXGK(Dnp)-CONH2 (SEQ ID NO: 74) substrates varied in retention time between 9 and 13 minutes. To calculate the percent conversion, the ratio of the integrated areas of the GK(Dnp)-CONH2 and Abz-LPETGK(Dnp)-CONH2 (SEQ ID NO: 19) peptide Abs355 peaks were compared directly. Subsequent determination of kcat/Km and KH were performed as described for in vitro SrtA characterization.\n(§3) In each case, rate constants were determined by measuring enzyme velocity at eight different substrate concentrations by HPLC assay, then fit using nonlinear regression to the Michaelis-Menten equation, yielding kcat and Km. KH was calculated by measuring enzyme velocity at 1 mM target substrate and eight different GGG concentrations by HPLC assay, then fitting the resulting curves using nonlinear regression to the modified Michaelis-Menten equation."}, "[2]": {"test_system": "LPETG (Abz-LPETGK(Dnp)-CONH2)", "assay": "In vitro sortase kinetics HPLC assay, LPETG substrate", "type": "biochemical", "settings": "substrate wt (LPETG)", "experimental": "as §1, §2, §3"}, "mouse tissues": {"test_system": "mouse tissues", "assay": "Tissue modification with GGG-Biotin (SA-568 fluorescence)", "experimental": "FIG. 10 is a graph showing the relative increase in fluorescence of mouse tissues specifically labeled with GGG-Biotin (detected with SA-568) using a sortase recognizing the LPESG (SEQ ID NO: 3) sortase recognition motif.\nTissue section microarrays were purchased from the BioChain institute (Cat. Z7020001, Lot B508112) and deparaffinized by treatment with 2 changes Xylene for 9 minutes each, 1 change 1:1 Xylene:Ethanol for 3 minutes, 1 change 100% ethanol for 3 minutes, 1 change 90% ethanol for 3 minutes, 1 change 70% ethanol for 3 minutes, 1 change 70% ethanol+0.25% ammonia for 1 hour, 1 change 50% ethanol for 3 minutes, 1 change DI water for 5 minutes. Antigen retrieval was achieved by soaking in 10 mM Citrate pH 6 followed by microwave heating for 2 minutes, then let to rest for 8 minutes. Tissues were washed with 10 mg/mL freshly prepared Sodium borohydride in PBS for 30 minutes on ice, then washed twice with PBS for 3 minutes each.\nSlides were blocked in 5% BSA/PBS for 1 hour at room temperature, then 0.001% (w/v) avidin in 5% BSA/PBS for 15 minutes, washed with 5% BSA/PBS, 0.001% (w/v) biotin in 5% BSA/PBS for 15 minutes, washed with 5% BSA/PBS and washed twice in TBS-BC (100 mM TBS, 500 mM NaCl, 0.5% BSA, 5 mM CaCl2) for three minutes. Slides were then treated with 20 uM Enzyme and 200 uM GGG-Biotin for 1 hour at room temperature, washed with 10 mM GGG in 5% BSA/PBS for 3 minutes, then washed twice with 5% BSA/PBS for 3 minutes. Slides were then treated with 2 mg/mL Sudan Black B in 70% EtOH for 30 minutes, washed three times with 5% BSA/PBS, incubated in 5% BSA/PBS+1:250 Streptavidin-568 for 30 minutes, washed 3 times with PBS, incubated with DAPI/PBS for 30 minutes and finally washed 3 times with PBS. Slides were dried, mounted and then visualized by confocal microscopy.\nTissue staining was performed as described previously, with biotin signal false colored in red and DAPI stain false colored in blue. In each case, total integrated biotin signal was computed for both negative control and SrtA+ samples, then background subtracted and used to calculate the total fluorescence enrichment shown in FIG. 10."}}, "note": "Read-outs that look alike come from different tables or passages of the source.", "data": [{"molecule": "B1", "values": [{"measurement": "Khydrolysis", "setting": "[1]; 1 mM 4S (LPESG) substrate", "result": 179.3, "unit": "µM"}, {"measurement": "kcat, 1 mM LxExG (Hz)", "setting": "[1]; 1 mM 4S (LPESG) substrate, GGG varied", "result": 1.931, "unit": "Hz"}, {"measurement": "Km", "setting": "[1]; 1 mM 4S (LPESG) substrate, read-out: Km, GGG", "result": 4950, "unit": "µM"}, {"measurement": "increase in kcat/Km for LPESG as compared to LPETG", "setting": "[1]; FIG. 2", "result": "~5", "unit": "fold"}, {"measurement": "specificity (relative cat. Efficiency, fold)", "setting": "[1]; ratio of kcat/Km between 4S (LPESG) and wt (LPETG) substrates", "result": 11, "unit": "fold"}, {"measurement": "kL/KL/KH", "setting": "[1]; substrate 4S (LPESG)", "result": "5.24E+07"}, {"measurement": "kHydrolysis (Hz)", "setting": "[1]; substrate 4S (LPESG), 1 mM, GGG varied", "result": 0.06696, "unit": "Hz"}, {"measurement": "kcat, 10 mM GGG (Hz)", "setting": "[1]; substrate 4S (LPESG), 10 mM GGG", "result": 0.9537, "unit": "Hz"}, {"measurement": "Km", "setting": "[1]; substrate 4S (LPESG), read-out: Km, LxExG", "result": 102, "unit": "µM"}, {"measurement": "kcat, 10 mM GGG (Hz)", "setting": "[2]; 10 mM GGG", "result": 1.102, "unit": "Hz"}, {"measurement": "Km", "setting": "[2]; read-out: Km, LxExG", "result": 1290, "unit": "µM"}, {"measurement": "labeling of tissue with GGG-Biotin", "setting": "mouse tissues; bladder tissue", "result": "specific labeling"}, {"measurement": "labeling of tissue with GGG-Biotin", "setting": "mouse tissues; pancreas tissue", "result": "specific labeling"}, {"measurement": "labeling of tissue with GGG-Biotin", "setting": "mouse tissues; prostate tissue", "result": "specific labeling"}, {"measurement": "labeling of tissue with GGG-Biotin", "setting": "mouse tissues; small intestine tissue", "result": "specific labeling"}, {"measurement": "labeling of tissue with GGG-Biotin", "setting": "mouse tissues; spleen tissue", "result": "specific labeling"}, {"measurement": "labeling of tissue with GGG-Biotin", "setting": "mouse tissues; testis tissue", "result": "specific labeling"}, {"measurement": "labeling of tissue with GGG-Biotin", "setting": "mouse tissues; uterus tissue", "result": "specific labeling"}]}]}
